What was measured:
[1] = test system: androgen receptor, estrogen receptor, and thyroid hormone receptor; experiment: Reporter gene activation by hormone-activated nuclear receptors in transiently transfected CV-1 cells; assay type: cell-based; details: co-expression of CARM1 with the NR and GRIP1, over NR+GRIP1 (lane e)
Procedure: (A) Transient transfection assays with CV-1 cells were performed as in FIG. 5 with 0.5 μg of GK1 reporter gene and 0.5 μg of each of the indicated vectors. (B) CV-1 cells were transiently transfected as in FIG. 5 with the following vectors, as indicated: 0.5 μg of nuclear receptor expression vector pSVAR0 (Brinkmann, A. O. et al. (1989) J. Steroid Biochem. Molec. Biol. 34:307) expressing AR, pHE0 (Green, S. et al. (1988) Nucleic Acids Res. 16:369) expressing ER, or pCMX.hTRβ1 (Feng, W. et al. (1998) Science 280:1747) expressing TR; 0.5 μg of a luciferase reporter gene with an appropriate promoter, MMTV promoter for AR, or MMTV promoter with the native glucocorticoid response elements replaced by a single estrogen response element for ER or palindromic thyroid hormone response element for TR (Umesono, K. and R. M. Evans (1989) Cell 57:1139); 0.5 μg of pSG5.HA-GRIP1; and 0.5 μg of pSG5.HA-CARM1 or pSG5.HA-CARM1 (VLD mutant). Transfection efficiency was monitored by using βgalactosidase activity expressed from 0.1 μg of co-transfected pCMV-βgal vector (Hong, H. et al. (1996) Proc. Natl. Acad. Sci. USA 93:4948-4952) as an internal control. After transfection, cells were grown in charcoal-treated serum; where indicated 20 nM hormone (H), i.e. dihydrotestosterone for AR, estradiol for ER, or triiodothyronine for TR, was included during the last 40 h of culture. […]

Gal4 DBD-GRIP1c = biological target: T1, Gal4 DBD-GRIP1c (Mus musculus, UniProt Q61026); experiment: Reporter gene activation by Gal4 DBD-GRIP1c in transiently transfected CV-1 cells; assay type: cell-based; details: co-expression with Gal4 DBD-GRIP1c, dose-dependent
T1 construct: coding for Gal4 DBD-GRIP1c where GRIP1c is GRIP1 amino acids 1121-1462; expressed in transfected cells; host or cells: CV-1 cells
Procedure: A) CV-1 cells in 6-well dishes (3.3 cm diameter well) were transiently transfected with 0.5 of μg pM.GRIP1c (coding for Gal4 DBD-GRIP1c where GRIP1c is GRIP1 amino acids 1121-1462), 0.5 μg of GK1 reporter gene (luciferase gene controlled by Gal4 binding sites) (Webb, P. et al., (1998) Mol. Endocrinol. 12:1605), and 0-0.8 μg of pSG5.HA-CARM1, using Superfectin (Qiagen) according to manufacturer's protocol. Total DNA was adjusted to 2.0 μg per well with the appropriate amount of pSG5. Cell extracts were prepared approximately 48 h after transfection and assayed with Promega Luciferase Assay kit. Relative light units of luciferase activity presented are the mean and standard deviation of three transfected wells. B) CV-1 cells were transfected as in A with the indicated amount of pM.GRIP1c and zero or 0.5 μg of pSG5.HA-CARM1.
In transient transfections of CV-1 cells, Gal4 DBD-GRIP1c weakly activates expression of a reporter gene with a promoter containing Gal4 binding sites; co-expression of CARM1 enhances reporter gene activity in a dose-dependent manner and provides a maximum stimulation of more than 10-fold (FIG. 5). CARM1 expression has little if any effect on the activity of Gal4DBD alone (FIG. 6A). CARM1 also enhances the activity of full length GRIP1 fused to Gal4DBD.

- maximum stimulation of reporter gene activity (Gal4 DBD-GRIP1c): more than 10 fold
B1: CARM1: novel murine protein arginine methyltransferase and transcriptional coactivator, 608 amino acids (protein, listed as Mus musculus)
chain: MAAAAATAVGPGAGSAGVAGPGGAGPCATVSVFPGARLLTIGDANGEIQRHAEQQALRLEVRAGPDAAGIALYSHEDVCVFKCSVSRETECSRVGRQSFIITLGCNSVLIQFATPHDFCSFYNILKTCRGHTLERSVFSERTEESSAVQYFQFYGYLSQQQNMMQDYVRTGTYQRAILQNHTDFKDKIVLDVGCGSGILSFFAAQAGARKIYAVEASTMAQHAEVLVKSNNLTDRIVVIPGKVEEVSLPEQVDIIISEPMGYMLFNERMLESYLHAKKYLKPSGNMFPTIGDVHLAPFTDEQLYMEQFTKANFRYQPSFHGVDLSALRGAAVDEYFRQPVVDTFDIRILMAKSVKYTVNFLEAKEGDLHRIEIPFKFHMLHSGLVHGLAFWFDVAFIGSIMTVWLSTAPTEPLTHWYQVRCLFQSPLFAKAGDTLSGTCLLIANKRQSYDISIVAQVDQTGSKSSNLLDLKNPFFRYTGTTPSPPPGSHYTSPSENMWNTGSTYNLSSGVAVAGMPTAYDLSSVIAGGSSVGHNNLIPLANTGIVNHTHSRMGSIMSTGIVQGSSGAQGGGGSSSAHYAVNNQFTMGGPAISMASPMSIPTNTMHYGS
- further enhancement of reporter gene expression [1]: 2 to 4 fold

Source: US8247168B2, “Regulation of gene expression by protein methylation” (University of Southern California, priority 1998, dated 2012)
